The target in assay [1] is T1, 重组人CD47-his蛋白 (ACRO biosystems, cat#CD7-H5227) (human, UniProt Q08722 19-139, biotin-labelled in the ELISA assays (site not stated)).
T1 construct: Bought protein; also called 人CD47蛋白; 人CD47-生物素; not shown: his tag
In words: SPR (Biacore T200), antibody captured by goat anti-mouse IgG on a CM5 chip, CD47-his as analyte.

Assay [2] concerns the target T2, 人CD47 (表面过表达人CD47的293F细胞) (human, UniProt Q08722 19-323).
T2 construct: whole, on cells; also called 表面过表达人CD47的稳定细胞系293F
The assay can be described thus: flow cytometry on 293F cells overexpressing human CD47. On the technique in general: In flow cytometry, cells or beads pass a laser one at a time.

T2 sequence (Q08722 19-323): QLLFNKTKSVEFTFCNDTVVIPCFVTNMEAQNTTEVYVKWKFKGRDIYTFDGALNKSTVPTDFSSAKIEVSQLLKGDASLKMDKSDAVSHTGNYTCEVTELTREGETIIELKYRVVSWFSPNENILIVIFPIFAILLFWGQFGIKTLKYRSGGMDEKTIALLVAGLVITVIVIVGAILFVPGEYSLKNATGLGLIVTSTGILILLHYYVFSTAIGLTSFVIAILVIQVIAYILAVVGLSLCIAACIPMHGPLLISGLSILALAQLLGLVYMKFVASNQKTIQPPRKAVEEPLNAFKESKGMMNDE
T1 sequence (Q08722 19-139 limits assumed): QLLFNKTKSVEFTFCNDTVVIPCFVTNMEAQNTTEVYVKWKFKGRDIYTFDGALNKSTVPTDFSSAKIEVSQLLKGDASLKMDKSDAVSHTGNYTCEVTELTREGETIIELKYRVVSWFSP

B1: 小鼠抗人CD47单克隆抗体1H10 (antibody, V domains shown)
VH: EVQLQQSGAELVRSGASVTLSCTASGFKIKDYYMNWVKQRPEQGLEWIGWIGPENGDTENGPKFQDKATMTANTSSNTAFLQLSSLTPEDTAFYYCNAGGRGGFPYWGQGTQVTVST
VL: DILLTQTPLSLPVSLGDQASFSCRSSQDIVHINGKTYLEWYLQKPGQSPKLLIYRVSNRFSGVPDRFSGSGSGTDFTLKISRVEAEDLGVYYCFQGSHVPRTFGGGTKLEIK
notes: also called 本发明的抗体1H10; 本发明的单克隆抗体1H10
Regarding B1, the binding result in assay [1] and in assay [2] was “binds” throughout.

The record behind these values is CN115746133A (BOAOXIN BIOTECHNOLOGY NANJING CO LTD, dated 2023).
